# Patent US20170081417A1 (Kyowa Kirin, published 2017)
# T1: human OX40 (CD134), full length, expressed on cells (activated human T cells); EL4-OX40 and CHO-OX40 … (human, UniProt P43489 29-277)
# T1 construct: also called TNFRSF4; surface expressed OX40
# T1 sequence: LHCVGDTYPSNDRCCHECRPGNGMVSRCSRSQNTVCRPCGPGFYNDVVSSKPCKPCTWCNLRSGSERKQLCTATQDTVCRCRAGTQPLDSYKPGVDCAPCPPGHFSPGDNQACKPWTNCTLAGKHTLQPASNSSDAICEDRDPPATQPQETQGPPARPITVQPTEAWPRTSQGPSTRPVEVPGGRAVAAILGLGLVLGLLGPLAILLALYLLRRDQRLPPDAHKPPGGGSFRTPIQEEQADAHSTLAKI
# Molecular target: T1, human OX40 (CD134), full length, …
# Experiment: flow cytometry titration on activated human T cells, anti-human IgG-PE
# Method: Following twenty minute incubation on ice, the cells were washed once and fixed ten minutes with 1% paraformaldehyde. After a final wash the cells were resuspended in staining buffer and the samples were acquired using FACScan or FACS Calibur flow cytometers (Becton Dickinson Biosciences, Palo Alto, Calif.), and the data were analyzed using Cellquest (Becton Dickinson Biosciences) or Flow Jo (TreeStar, Inc., San Carlos, Calif.) software. The activated T cells were also stained with mouse anti-human OX40 antibody L106 (Becton Dickinson), which was directly conjugated to phycoerythrin or whose binding was detected with anti-mouse IgG-PE (Southern Biotechnology Associates.) OX40L Blocking Assays: To determine if the anti-human OX40 antibodies could block OX40L binding to soluble OX40 both ELISA and flow cytometric protocols were used. In the ELISA 96 well Nunc flat bottom plates were coated with recombinant soluble hOX40:hFc at 2 μg/ml in carbonate buffer (pH9.4) for one hour at 37° C. The plates were washed with PBS/0.1% Tween 20 and Superblock (Pierce) was added to the wells to block non-specific binding. The test antibodies were diluted to 1 μg/ml in PBS/Tween and added to the plates. After one hour incubation at 37° C., FLAG tagged recombinant soluble human OX40L (Alexis Biochemicals, San Diego, Calif.) was added to the appropriate wells without washing out the anti-OX40 antibodies. Following one hour incubation, the plates were washed and an anti-FLAG-peroxidase conjugated antibody (Sigma) was added to the wells for one hour at 37° C. The TMB substrate was added, after ten minutes the reaction was stopped with H₂SO₄, and the results were read at 450 nm using a microplate reader. In the flow cytometric assay, human CD4+ T cells were purified and activated with PHA+IL2 for two days. The cells were washed and resuspended in staining buffer and then incubated with increasing amounts of human anti-human OX40 antibodies for twenty minutes on ice, from 0.005-50 μg/ml. Soluble recombinant OX40L-FLAG was then added to the cells. The cells were washed and incubated with anti-FLAG conjugated to PE (Sigma). After another wash, the cells were fixed with 1% paraformaldehyde and analyzed on a FACScan or FACScalibur.
BMAX Geo Mean,Kd [nM],Binder
162 geometric mean fluorescence,14,"112Y55 human anti-human OX40 monoclonal antibody (hybridoma ATCC No. PTA-7220) (antibody, V domains shown) VH: QITLKESGPTLVKPTQTLTLSCTFSGFSLSTSGVGVGWIRQPPGKALEWLALIHWDDAERYSPSLKSRLTITKDTSKNQVVLTMTNMDLVDTATYYCAHTRGAFDIWGQGTMVTVSS VL: EIVLTQSPGTLSLSPGERAILSCRASQSVSSSFLAWYQQKPGQAPRLLIYGAFSRATGIPDRFSGSGSGTDFTLTISRLEPEDFAVYYCQQYDSSRTFGQGTKVEIK"
171 geometric mean fluorescence,25,"112Y131 human anti-human OX40 monoclonal antibody (hybridoma ATCC No. PTA-7218) (antibody, V domains shown) VH: QITLKESGPTLVKPTQTLTLTCTFSGFSLSTSGVGVGWIRQPPGKALEWLALIYWDDHSPYSPSLKSRLTITKDTSKNQVVLTMTNMDPVDTATYYCARTRGAFDIWGQGTMVTVSS VL: EIVLTQSPATLSLSPGERATLSCRASQGVSSYLAWYQQKPGQAPRLLIYDASNRATGIPARFSGSGPGTDFTLTISSLEPEDFAVYYCQQRSNWHPTFGQGTKVEIK"
